Laboratory results reported in patent publication US20210388081A1 (Memorial Sloan Kettering, published 2021).

Tests used:
[1] = molecular target: T1, FcRL1, overexpressed on 3T3 cells (UniProt Q96LA6 17-429, limits assumed); test: phage clone on 3T3-FcRL1 cells
T1 construct: whole, on cells
T1 sequence (looked up): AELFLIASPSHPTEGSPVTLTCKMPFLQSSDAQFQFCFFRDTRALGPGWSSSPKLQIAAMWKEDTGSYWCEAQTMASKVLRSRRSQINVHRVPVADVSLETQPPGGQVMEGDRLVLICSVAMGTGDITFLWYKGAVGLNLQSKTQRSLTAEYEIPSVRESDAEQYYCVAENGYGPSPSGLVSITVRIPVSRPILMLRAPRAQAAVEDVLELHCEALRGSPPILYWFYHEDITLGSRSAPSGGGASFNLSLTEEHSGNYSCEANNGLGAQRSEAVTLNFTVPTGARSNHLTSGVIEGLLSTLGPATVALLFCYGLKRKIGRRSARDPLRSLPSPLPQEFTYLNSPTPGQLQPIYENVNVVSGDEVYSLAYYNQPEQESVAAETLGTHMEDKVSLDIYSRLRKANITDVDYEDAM

[2] = molecular target: T2, FcRL4, overexpressed on 3T3 cells (UniProt Q96PJ5 20-515, limits assumed); test: phage clone on 3T3-FcRL4 cells
T2 construct: whole, on cells
T2 sequence (looked up): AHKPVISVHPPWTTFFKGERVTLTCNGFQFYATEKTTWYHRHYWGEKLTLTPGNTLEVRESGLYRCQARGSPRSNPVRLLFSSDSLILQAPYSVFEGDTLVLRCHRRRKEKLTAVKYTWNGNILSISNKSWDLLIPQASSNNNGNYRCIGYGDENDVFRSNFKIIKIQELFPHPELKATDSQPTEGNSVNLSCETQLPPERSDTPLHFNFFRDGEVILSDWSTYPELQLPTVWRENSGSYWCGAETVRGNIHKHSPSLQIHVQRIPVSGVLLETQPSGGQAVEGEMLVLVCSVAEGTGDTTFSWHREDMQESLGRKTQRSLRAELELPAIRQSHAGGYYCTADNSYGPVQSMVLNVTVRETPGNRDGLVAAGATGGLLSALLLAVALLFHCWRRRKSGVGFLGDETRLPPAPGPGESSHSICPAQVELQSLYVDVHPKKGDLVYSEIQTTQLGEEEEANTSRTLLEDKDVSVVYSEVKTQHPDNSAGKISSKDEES

[3] = molecular target: T3, FcRL3, overexpressed on 3T3 cells (UniProt Q96P31 18-734, limits assumed); test: phage clone on 3T3-FcRL3 cells
T3 construct: whole, on cells
T3 sequence (looked up): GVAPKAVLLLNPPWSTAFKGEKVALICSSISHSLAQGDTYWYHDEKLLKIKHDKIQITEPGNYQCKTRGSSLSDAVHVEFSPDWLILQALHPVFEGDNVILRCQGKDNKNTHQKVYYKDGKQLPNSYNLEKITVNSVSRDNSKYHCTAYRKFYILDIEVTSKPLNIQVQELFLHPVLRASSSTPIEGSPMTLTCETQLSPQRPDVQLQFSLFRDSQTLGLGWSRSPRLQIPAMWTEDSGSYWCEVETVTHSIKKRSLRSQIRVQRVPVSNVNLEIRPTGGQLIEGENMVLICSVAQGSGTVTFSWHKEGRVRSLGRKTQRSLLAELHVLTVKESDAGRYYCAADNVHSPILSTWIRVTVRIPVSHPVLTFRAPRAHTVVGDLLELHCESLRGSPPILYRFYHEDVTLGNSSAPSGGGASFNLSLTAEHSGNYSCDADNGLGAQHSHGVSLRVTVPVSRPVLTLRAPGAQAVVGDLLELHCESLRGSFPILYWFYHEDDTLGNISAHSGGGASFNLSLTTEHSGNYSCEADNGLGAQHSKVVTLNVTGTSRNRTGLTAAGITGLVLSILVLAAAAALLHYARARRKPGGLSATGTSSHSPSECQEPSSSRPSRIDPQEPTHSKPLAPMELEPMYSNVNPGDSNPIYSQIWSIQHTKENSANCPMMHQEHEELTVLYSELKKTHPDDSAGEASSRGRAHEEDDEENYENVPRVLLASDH

[4] = molecular target: T4, FcRL6, overexpressed on 3T3 cells (UniProt Q6DN72 20-434, limits assumed); test: phage clone on 3T3-FcRL6 cells
T4 construct: whole, on cells
T4 sequence (looked up): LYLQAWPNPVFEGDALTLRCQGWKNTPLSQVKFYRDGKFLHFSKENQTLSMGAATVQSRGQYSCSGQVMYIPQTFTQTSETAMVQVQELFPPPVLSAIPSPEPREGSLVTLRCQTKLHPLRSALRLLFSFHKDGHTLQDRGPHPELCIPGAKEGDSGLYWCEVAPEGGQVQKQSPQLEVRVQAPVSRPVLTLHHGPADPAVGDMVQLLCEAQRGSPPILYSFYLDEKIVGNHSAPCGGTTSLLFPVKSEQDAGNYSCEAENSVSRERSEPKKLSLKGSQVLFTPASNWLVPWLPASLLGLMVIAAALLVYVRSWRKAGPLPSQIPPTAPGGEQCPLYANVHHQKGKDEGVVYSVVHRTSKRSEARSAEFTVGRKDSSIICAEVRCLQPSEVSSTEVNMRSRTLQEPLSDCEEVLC

Measured: binding result

B1: ET200-031 (scFv)
scFv: SYVLTQPPSVSVAPGKTARITCGGNNIGSKSVHWYQQKPGQAPVLVIYYDSDRPSGIPERFSGSNSGNTATLTISRVEAGDEADYYCQVWDSSSDYVFGTGTKVTVLGSRGGGGSGGGGSGGGGSLEMAEVQLVETGGGLVKPGGSLRLSCAASGFTVSDYYMSWIRQAPGKGLEWISYISGSGNSIYYADSVKGRFTISRDNAKNSLDLQMTSLRAEDTAVYYCARSTKFDYWGQGTLVTVSSTSGQAGQHHHHHHGAYPYDVPDYAS
notes: screened as phage clone; entry is VL-linker-VH-His tag-HA tag; also called ET200-31
no binding: all assays above

B2: ET200-040 (scFv)
scFv: QSVLTQPPSVSGAPGQRVTISCTGSSSNIGAGYDVHWYQQLPGTAPKLLIYGNSNRPSGVPDRFSGSKSGTSASLAITGLQAEDEADYYCQSYDSSLSGYVFGTGTKVTVLGSRGGGGSGGGGSGGGGSLEMAQVQLVQSGAEVKKPGASVKVSCKVSGYTLTELSMHWVRQAPGKGLEWMGGFDPEDGETIYAQKFQGRVTMTEDTSTDTAYMELSSLRSEDTAVYYCARYSGVYYDWGQGTLVTVSSTSGQAGQHHHHHHGAYPYDVPDYAS
notes: screened as phage clone; entry is VL-linker-VH-His tag-HA tag
no binding: all assays above

B3: ET200-038 (scFv)
scFv: QSVLTQPPSVSGAPGQRVTISCTGSSSNIGAGFDVHWYQLLPGTAPKLLIYANSNRPSGVPDRFSGSKSGTSASLAITGLLAEDEADYYCQSYDSSLSGVVFGGGTKLTVLGSRGGGGSGGGGSGGGGSLEMAQVQLVQSGAEVKKPGSSVKVSCKASGGTFSSYAISWVRQAPGQGLEWMGGIIPIFGTANYAQKFQGRVTITADESTSTAYMELSSLRSEDTAVYYCARGASFDRHDNWGQGTLVTVSSTSGQAGQHHHHHHGAYPYDVPDYAS
notes: as for B2
no binding: all assays above

B4: ET200-002 (scFv)
scFv: NFMLTQPHSVSESPGKTVTISCTRSSGSIASNYVQWYQQRPGSAPTTVIYEDNQRPSGVPDRFSGSIDSSSNSASLTISGLKTEDEADYYCQSYDSSNSVVFGGGTKLTVLGSRGGGGSGGGGSGGGGSLEMAQVQLVQSGTEVKKPGASVRVACKASGYPFNKYDINWVRQAPGQGLEWMGGIIPIFRTTNYAQKFQGRVTITADESTSTAYMELSSLRSEDTAVYYCAREWFYWDIWGQGTLVTVSSTSGQAGQHHHHHHGAYPYDVPDYAS
notes: as for B2
no binding: all assays above

B5: ET200-003 (scFv)
scFv: QSVLTQPPSVSVSPGQTASISCSGNKLGTKYVYWYQKRPGQSPVLVMYEDNQRPSGIPERFSGSNSGNTATLTIRGTQTVDEADYYCQAWDSDTFVVFGGGTKVTVLGSRGGGGSGGGGSGGGGSLEMAEVQLVETGGGVVQPGRSLRLSCAASGFTFSSYGMHWVRQAPGKGLEWVAVISHDGSNKYYADSVKGRFTISRDNSKDTLYLQMNSLRGEDTAVYYCARSNQWSGYFSFDYWGQGTLVTVSSTSGQAGQHHHHHHGAYPYDVPDYAS
notes: as for B2
no binding: all assays above

B6: ET200-042 (scFv)
scFv: QSVVTQPPSVSGAPGQTVTISCTGGSSNIGTGYFVNWYQQVPGKAPKLLILGNNNRPSGVPDRLSGSTSGTSASLAITGLQAEDEGTYYCQSYDSSLSGYVFGTGTKVTVLGSRGGGGSGGGGSGGGGSLEMAQVQLQQSGPGLVKPSQTLSLTCGISGDSVSTNSVAWHWIRQSPSRGLEWLGRTYYRSKWSNDYGVSVKSRITIIPDTSKNQFSLQLNSVTPEDTAVYYCARSSSWYQIFDYWGQGTLVTVSSTSGQAGQHHHHHHGAYPYDVPDYAS
notes: as for B2
no binding: all assays above

B7: ET200-041 (scFv)
scFv: NFMLTQPHSVSGSPGKTVTISCTGSSGSIADNFVQWYQQRPGGVPTTVIFNDDERPSGVPDRFSGSIDTSSNSASLTISGLKTEDEADYYCQSYDNNNRGVFGGGTKLTVLGSRGGGGSGGGGSGGGGSLEMAQVQLVQSGAEVKKPGSSVKVSCKASGGTFSSYAISWVRQAPGQGLEWMGWMNPNSGNTGYAQKFQGRVTMTRNTSISTAYMELSNLRSEDTAVYYCARYYSYGYDWGQGTLVTVSSTSGQAGQHHHHHHGAYPYDVPDYAS
notes: as for B2
no binding: all assays above

B8: ET200-034 (scFv)
scFv: QSVLTQPPSVSGAPGQRVTISCTGSTSNIGAGYDVHWYQQLPGTAPKLLINNNRNRPSGVPDRFSGSKSGTSATLGITGLQTGDEADYYCGTWDGSLTGAVFGGGTKLTVLGSRGGGGSGGGGSGGGGSLEMAEVQLVQSGAEVKKPGSSVKVSCKASGGTFSSYAISWVRQAPGQGLEWMGGIIPIFGTANYAQKFQGRVTITADESTSTAYMELSSLRSEDTAVYYCARGSALDHYDRWGQGTLVTVSSTSGQAGQHHHHHHGAYPYDVPDYAS
notes: as for B2
no binding: all assays above

B9: ET200-032 (scFv)
scFv: LPVLTQPPSASGTPGQRVTISCSGSSSNVGSYTVNWYRQLPGTAPTLLIYNNNQRPSGVPDRFSDSKSGTSASLTISGLQPEDEADYYCAAWDDRLGGYVFGTGTKVTVLGSRGGGGSGGGGSGGGGSLEMAEVQLVQSGAEVKKPGESLKISCKGSGYSFTNYWIGWVRQMPGKGLEWMGIIYPGDSDTRYSPSFQGQVTISADKSISTAYLQWSSLKASDTAMYYCARSTGSSHMSDEWGQGTLVTVSSTSGQAGQHHHHHHGAYPYDVPDYAS
notes: as for B2
no binding: all assays above

B10: ET200-033 (scFv)
scFv: NFMLTQPHSVSESPGKTVTISCTGSSGSIASNYVQWYQQRPGSAPTTVIYEDNQRPSGVPDRFSGSIDSSSNSASLTISGLKTEDEADYYCQSYDSSNHWVFGGGTKLTVLGSRGGGGSGGGGSGGGGSLEMAQVQLQQWGAGLLKPSETLSLTCAVYGGSFSGYYWSWIRQPPGKGLEWIGEITHSGRSNYNPSLKSRVTISVDTSKNQFSLKLSSVTAADTAVYYCARSSIMSDYWGQGTLVTVSSTSGQAGQHHHHHHGAYPYDVPDYAS
notes: as for B2
no binding: all assays above
